Measurements reported in paper PMC4228062.

Target: recombinant galectin-7 R74S (human)
Assay: native gel or EMSA; recombinant gal-7 (wild type or R74S) on a native gel, detected by immunoblot; monomeric and dimeric forms

A stoichiometry N of 2 was found for “recombinant galectin-7 R74S (natural protein)” in this work.
